Experiment [1] addresses T1, His-lamin B1, full length (human, UniProt P20700 1-586).
T1 sequence (looked up): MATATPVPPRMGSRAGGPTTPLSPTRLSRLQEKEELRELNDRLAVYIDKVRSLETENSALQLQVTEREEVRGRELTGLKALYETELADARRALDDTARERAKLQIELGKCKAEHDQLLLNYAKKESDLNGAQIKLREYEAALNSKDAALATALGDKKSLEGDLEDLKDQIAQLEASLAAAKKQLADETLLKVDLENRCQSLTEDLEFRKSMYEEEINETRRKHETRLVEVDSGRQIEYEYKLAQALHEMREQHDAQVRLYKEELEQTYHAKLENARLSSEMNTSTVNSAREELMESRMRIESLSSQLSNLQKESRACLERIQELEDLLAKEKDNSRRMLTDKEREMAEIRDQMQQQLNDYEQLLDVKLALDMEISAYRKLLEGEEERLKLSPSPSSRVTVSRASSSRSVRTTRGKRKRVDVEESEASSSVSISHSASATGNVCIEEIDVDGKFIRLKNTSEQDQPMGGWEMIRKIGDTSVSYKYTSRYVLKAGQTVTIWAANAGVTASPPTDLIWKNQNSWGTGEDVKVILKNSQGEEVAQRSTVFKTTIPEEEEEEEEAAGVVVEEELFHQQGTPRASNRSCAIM
Put plainly: pull-down.

For experiment [2], the target named is His-IRIF 53BP1 (human, UniProt Q12888 1222-1659). The experiment in a line: pull-down.

B1: GST-53BP1 IRIF (domain or fragment, human, UniProt Q12888 1222-1659, looked up)
chain: EEEFDMPQPPHGHVLHRHMRTIREVRTLVTRVITDVYYVDGTEVERKVTEETEEPIVECQECETEVSPSQTGGSSGDLGDISSFSSKASSLHRTSSGTSLSAMHSSGSSGKGAGPLRGKTSGTEPADFALPSSRGGPGKLSPRKGVSQTGTPVCEEDGDAGLGIRQGGKAPVTPRGRGRRGRPPSRTTGTRETAVPGPLGIEDISPNLSPDDKSFSRVVPRVPDSTRRTDVGAGALRRSDSPEIPFQAAAGPSDGLDASSPGNSFVGLRVVAKWSSNGYFYSGKITRDVGAGKYKLLFDDGYECDVLGKDILLCDPIPLDTEVTALSEDEYFSAGVVKGHRKESGELYYSIEKEGQRKWYKRMAVILSLEQGNRLREQYGLGPYEAVTPLTKAADISLDNLVEGKRKRRSNVSSPATPTASSSSSTTPTRKITESPRA
As to B1, the binding result in experiment [1] was “binds”.

B2: GST-Head-Coil1 lamin B1 (domain or fragment, human, UniProt P20700 1-243, looked up)
chain: MATATPVPPRMGSRAGGPTTPLSPTRLSRLQEKEELRELNDRLAVYIDKVRSLETENSALQLQVTEREEVRGRELTGLKALYETELADARRALDDTARERAKLQIELGKCKAEHDQLLLNYAKKESDLNGAQIKLREYEAALNSKDAALATALGDKKSLEGDLEDLKDQIAQLEASLAAAKKQLADETLLKVDLENRCQSLTEDLEFRKSMYEEEINETRRKHETRLVEVDSGRQIEYEYKLA
Consider B2, for which, in experiment [2], the binding result is “binds”.

B3: GST-Nterm lamin B1 (domain or fragment, human, UniProt P20700 1-424, looked up)
chain: MATATPVPPRMGSRAGGPTTPLSPTRLSRLQEKEELRELNDRLAVYIDKVRSLETENSALQLQVTEREEVRGRELTGLKALYETELADARRALDDTARERAKLQIELGKCKAEHDQLLLNYAKKESDLNGAQIKLREYEAALNSKDAALATALGDKKSLEGDLEDLKDQIAQLEASLAAAKKQLADETLLKVDLENRCQSLTEDLEFRKSMYEEEINETRRKHETRLVEVDSGRQIEYEYKLAQALHEMREQHDAQVRLYKEELEQTYHAKLENARLSSEMNTSTVNSAREELMESRMRIESLSSQLSNLQKESRACLERIQELEDLLAKEKDNSRRMLTDKEREMAEIRDQMQQQLNDYEQLLDVKLALDMEISAYRKLLEGEEERLKLSPSPSSRVTVSRASSSRSVRTTRGKRKRVDVEES
Take B3: the binding result in experiment [2] is recorded as “binds”.

(Values after publication PMC8397269 (Science Advances, 2021).)
